From patent US8420051B2, “Muteins of hNGAL and related proteins with affinity for a given target” (Technische Universitaet Meunchen, priority 2008, dated 2013)
Like-named read-outs stand apart in the source and are kept apart here.

Assays:
[1] = molecular target: human neutrophil gelatinase-associated lipocalin (hNGAL, Lcn2, P80188), wild type (Homo sapiens, UniProt P80188); conditions: cited from earlier work
[2] = molecular target: T1, hNGAL mutein C26, SEQ ID NO: 10 (Yd5 + L42P/P48L/Q49L/I55T/K75M) (Homo sapiens, UniProt P80188, C107S/D97E/I100T/I61A/I75T/K154S/K95M/L56R/L62P/L90R/P68L/Q48H/Q69L/R101M/S147Q/S88A/T156S/T165A/T74Q/V53Q/W99L/Y158L/Y72T); format: binding; conditions: read-out: Kg (from half-maximal free metal chelate concentration)
T1 construct: the mature hNGAL protein and the C-terminal Strep-tag II; OmpA signal peptide (N, cleaved yes); made in house; host or cells: E. coli BL21 or TG1-F- (periplasm), plasmid pNGAL15
T1 sequence (P80188 21-198 with the stated changes): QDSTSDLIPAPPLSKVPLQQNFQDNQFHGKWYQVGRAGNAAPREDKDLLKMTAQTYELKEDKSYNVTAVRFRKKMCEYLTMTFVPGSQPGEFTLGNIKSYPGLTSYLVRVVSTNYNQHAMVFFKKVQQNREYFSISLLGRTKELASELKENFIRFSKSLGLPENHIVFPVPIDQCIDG

[3] = molecular target: T2, hNGAL mutein Ya6, SEQ ID NO: 8 (Tb7.N9.N34 with Thr136Ser) (Homo sapiens, UniProt P80188, C107S/I100T/I61A/K154S/L56R/L90R/Q48H/R101M/S147Q/S88A/T156S/T165A/T74Q/V53Q/W99L/Y158L/Y72T); test: SPR (Biacore), immobilized Me•DTPA-RNase; format: binding
T2 construct: the mature hNGAL protein and the C-terminal Strep-tag II; Strep-tag II (C); OmpA signal peptide (N, cleaved yes); made in house; host or cells: E. coli BL21 or TG1-F- (periplasm), plasmid pNGAL15
T2 sequence (P80188 21-198 with the stated changes): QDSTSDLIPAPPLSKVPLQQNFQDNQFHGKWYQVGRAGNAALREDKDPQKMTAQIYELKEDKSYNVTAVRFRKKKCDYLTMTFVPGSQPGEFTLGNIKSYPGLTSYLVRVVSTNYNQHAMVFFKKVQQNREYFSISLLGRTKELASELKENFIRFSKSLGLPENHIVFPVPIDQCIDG
Experimental: (§1) Real time analysis of hNGAL variants was performed on a BIAcore X system (BIAcore, Uppsala, Sweden) using PBS/t (PBS containing 0.005% (v/v) Tween 20) as running buffer. 5 to 27 μg/ml solutions of the Me•DTPA-RNase conjugate in 10 mM Na-acetate, pH 5.0 were immobilized on a CM5 chip using standard amine coupling chemistry, resulting in a ligand density of 240 to 1800 resonance units (RU). The purified hNGAL variant was applied at a flow rate of 5 or 25 μl/min at concentrations of 0.5 up to 500 nM. The sensorgrams were corrected by subtraction of the corresponding signals measured for the control channel, which had been activated and blocked with ethanolamine. Kinetic data evaluation was performed by global fitting with BIAevaluation software V 3.0 (Karlsson et al. (1991) J. Immunol. Methods 145, 229-240). Alternatively, the plateau values at the end of the association phase (after 200 s) were plotted against the applied protein concentration and fitted as in the ELISA (see above) to determine the equilibrium dissociation constants (KO.
(§2) Finally, the hNGAL variants were analyzed by SPR using a Biacore CM-5 chip with the covalently attached Y-DTPA-RNaseA conjugate and applying the purified recombinant proteins (Table 3). […] The improved KD values result primarily from slower ligand dissociation.

[4] = molecular target: T3, hNGAL mutein Tb7, SEQ ID NO: 2 (Gln28His, Val33Gln, Leu36Arg, Ile41Ala, Tyr52Thr, Thr54Gln, Ser68Ala, Leu70Arg, Trp79Ala, Arg81Met, Cys87Ser, Lys134Ser, Tyr138L (Homo sapiens, UniProt P80188, C107S/I61A/K154S/L56R/L90R/Q48H/R101M/S88A/T165A/T74Q/V53Q/W99A/Y158L/Y72T)); test: SPR (Biacore), immobilized Me•DTPA-RNase; format: binding
T3 construct: the mature hNGAL protein and the C-terminal Strep-tag II; OmpA signal peptide (N, cleaved yes); made in house; host or cells: E. coli BL21 or TG1-F- (periplasm), plasmid pNGAL15
T3 sequence (P80188 21-198 Q48H/V53Q/L56R/I61A/Y72T/T74Q/S88A/L90R/W99A/R101M/C107S/K154S/Y158L/T165A): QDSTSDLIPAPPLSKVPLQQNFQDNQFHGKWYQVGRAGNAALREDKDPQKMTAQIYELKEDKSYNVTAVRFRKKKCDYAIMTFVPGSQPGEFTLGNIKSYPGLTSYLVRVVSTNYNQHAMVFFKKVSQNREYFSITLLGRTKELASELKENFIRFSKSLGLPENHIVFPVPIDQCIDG
Experimental: as §1, §2

[5] = molecular target: T4, hNGAL mutein Yd5, SEQ ID NO: 9 (Tb7.N9.N34 + D77E/T136S) (Homo sapiens, UniProt P80188, C107S/D97E/I100T/I61A/K154S/L56R/L90R/Q48H/R101M/S147Q/S88A/T156S/T165A/T74Q/V53Q/W99L/Y158L/Y72T); test: SPR (Biacore), immobilized Me•DTPA-RNase; format: binding
T4 construct: the mature hNGAL protein and the C-terminal Strep-tag II; OmpA signal peptide (N, cleaved yes); made in house; host or cells: E. coli BL21 or TG1-F- (periplasm), plasmid pNGAL15
T4 sequence (P80188 21-198 with the stated changes): as the sequence (P80188 21-198 Q48H/V53Q/L56R/I61A/Y72T/T74Q/S88A/L90R/W99A/R101M/C107S/K154S/Y158L/T165A) above, with D77E, A79L, I80T, S127Q, T136S counted along it
Experimental: as §1, §2

[6] = molecular target: T5, hNGAL mutein Tb7.N9.N34, SEQ ID NO: 7 (Tb7.N9 + S127Q) (Homo sapiens, UniProt P80188, C107S/I100T/I61A/K154S/L56R/L90R/Q48H/R101M/S147Q/S88A/T165A/T74Q/V53Q/W99L/Y158L/Y72T); test: SPR (Biacore), immobilized Me•DTPA-RNase; format: binding
T5 construct: the mature hNGAL protein and the C-terminal Strep-tag II; Strep-tag II (C); OmpA signal peptide (N, cleaved yes); made in house; host or cells: E. coli BL21 or TG1-F- (periplasm), plasmid pNGAL15
T5 sequence (P80188 21-198 with the stated changes): as the sequence (P80188 21-198 Q48H/V53Q/L56R/I61A/Y72T/T74Q/S88A/L90R/W99A/R101M/C107S/K154S/Y158L/T165A) above, with A79L, I80T, S127Q counted along it
Experimental: as §1, §2

[7] = molecular target: T6, hNGAL mutein Tb7.N9, SEQ ID NO: 6 (Tb7 + A79L/I80T) (Homo sapiens, UniProt P80188, C107S/I100T/I61A/K154S/L56R/L90R/Q48H/R101M/S88A/T165A/T74Q/V53Q/W99L/Y158L/Y72T); test: SPR (Biacore), immobilized Me•DTPA-RNase; format: binding
T6 construct: the mature hNGAL protein and the C-terminal Strep-tag II; OmpA signal peptide (N, cleaved yes); made in house; host or cells: E. coli BL21 or TG1-F- (periplasm), plasmid pNGAL15
T6 sequence (P80188 21-198 Q48H/V53Q/L56R/I61A/Y72T/T74Q/S88A/L90R/W99L/I100T/R101M/C107S/K154S/Y158L/T165A): as the sequence (P80188 21-198 Q48H/V53Q/L56R/I61A/Y72T/T74Q/S88A/L90R/W99A/R101M/C107S/K154S/Y158L/T165A) above, with A79L, I80T counted along it
Experimental: as §1, §2

[8] = molecular target: T7, human neutrophil gelatinase-associated lipocalin (hNGAL), wild type, SEQ ID NO: 1 (Homo sapiens, UniProt P80188); test: ELISA, captured hNGAL variant with Me•DTPA conjugate; format: binding
T7 construct: the mature hNGAL protein and the C-terminal Strep-tag II; OmpA signal peptide (N, cleaved yes); made in house; host or cells: E. coli BL21 or TG1-F- (periplasm), plasmid pNGAL14
T7 sequence (P80188 21-198): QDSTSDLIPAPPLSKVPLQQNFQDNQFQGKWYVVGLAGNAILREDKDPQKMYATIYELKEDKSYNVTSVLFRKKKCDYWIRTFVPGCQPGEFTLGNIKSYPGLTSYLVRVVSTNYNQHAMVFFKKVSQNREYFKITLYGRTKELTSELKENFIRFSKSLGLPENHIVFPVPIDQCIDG

[9] = molecular target: T8, hNGAL mutein Tb7, SEQ ID NO: 2 (Homo sapiens, UniProt P80188, C107S/I61A/K154S/L56R/L90R/Q48H/R101M/S88A/T165A/T74Q/V53Q/W99A/Y158L/Y72T); test: as above; format: binding; conditions: Tb•DTPA-RNase A conjugate, read-out: apparent affinity
T8 construct: the mature hNGAL protein and the C-terminal Strep-tag II; OmpA signal peptide (N, cleaved yes); made in house; host or cells: E. coli BL21 or TG1-F- (periplasm), plasmid pNGAL15
T8 sequence (P80188 21-198 Q48H/V53Q/L56R/I61A/Y72T/T74Q/S88A/L90R/W99A/R101M/C107S/K154S/Y158L/T165A): as the sequence (P80188 21-198 Q48H/V53Q/L56R/I61A/Y72T/T74Q/S88A/L90R/W99A/R101M/C107S/K154S/Y158L/T165A) above

[10] = 5 μl/min, from the kinetic analysis, read-out: KD
[11] = equilibrium analysis, read-out: Kd/eq

Chain of human neutrophil gelatinase-associated lipocalin (hNGAL, Lcn2, P80188), wild type (P80188 21-198, one chain of several): as the sequence (P80188 21-198) above

For `O=C(CC(O)(CC(=O)NCCCCNCCCNC(=O)c1ccc(O)c(O)c1)C(=O)O)NCCCCNCCCNC(=O)c1ccc(O)c(O)c1` [petrobactin], the “binding” value [1] is given as “does not bind”.

In the case of `Nc1ccc(C[C@H](CN(CC(=O)O)[C@H]2CCCC[C@@H]2N(CC(=O)O)CC(=O)O)N(CC(=O)O)CC(=O)O)cc1.[In+3]` [Me•p-NH2-Bn-CHX-A″-DTPA (In^3+), [(R)-2-amino-3-(4-aminophenyl)propyl]-trans-(S,S)-cyclohexane-1,2-diamine-pentaacetic acid], the Kd [2] is reported as 44.7 ± 2.5 nM.

In the case of `Nc1ccc(C[C@H](CN(CC(=O)O)[C@H]2CCCC[C@@H]2N(CC(=O)O)CC(=O)O)N(CC(=O)O)CC(=O)O)cc1.[Gd+3]` [Me•p-NH2-Bn-CHX-A″-DTPA (Gd^3+), [(R)-2-amino-3-(4-aminophenyl)propyl]-trans-(S,S)-cyclohexane-1,2-diamine-pentaacetic acid], the Kd [2] is reported as 3.6 ± 0.24 nM.

For `O=C(N[C@H]1COC(=O)[C@@H](NC(=O)c2cccc(O)c2O)COC(=O)[C@@H](NC(=O)c2cccc(O)c2O)COC1=O)c1cccc(O)c1O.[Fe+3]` [Fe^3+-enterobactin, enterobactin], the Kd ([1]; read-out: dissociation constant (KD)) is given as 0.4 nM.

In the case of `C[C@H]1OC(=O)[C@@H](NC(=O)CNC(=O)c2cccc(O)c2O)[C@@H](C)OC(=O)[C@@H](NC(=O)CNC(=O)c2cccc(O)c2O)[C@@H](C)OC(=O)[C@H]1NC(=O)CNC(=O)c1cccc(O)c1O` [bacillibactin], the “binding” value [1] is given as “forms stable complexes”.

With `Nc1ccc(C[C@H](CN(CC(=O)O)[C@H]2CCCC[C@@H]2N(CC(=O)O)CC(=O)O)N(CC(=O)O)CC(=O)O)cc1.[Tb+3]` [Me•p-NH2-Bn-CHX-A″-DTPA (Tb^3+), [(R)-2-amino-3-(4-aminophenyl)propyl]-trans-(S,S)-cyclohexane-1,2-diamine-pentaacetic acid] the Kd [2] was 2.9 ± 0.17 nM.

B1: Tb^3+•DTPA-RNase: p-SCN-Bn-CHX-A″-DTPA covalently coupled to bovine ribonuclease A (about 1:1), charged with Tb^3+ (conjugate, UniProt P61823 27-150, looked up)
Ribonuclease pancreatic: KETAAAKFERQHMDSSTSAASSSNYCNQMMKSRNLTKDRCKPVNTFVHESLADVQAVCSQKNVACKNGQTNCYQSYSTMSITDCRETGSSKYPNCAYKTTQANKHIIVACEGNPYVPVHFDASV
modifications: CHX-A''-DTPA chelate with Tb3+
Molecule B1 has a koff ([3]; 5 μl/min) of 0.00296 s⁻¹, a Kd [3, 10] of 2.39 nM and a Kd [3, 11] of 5 ± 0.22 nM. The koff ([4]; 5 μl/min) was 0.0401 s⁻¹, the kon ([4]; 5 μl/min) was 535000 M⁻¹ s⁻¹ and the Kd [4, 10] was 74.9 nM. It also gave a Kd ([4]; from concentration-dependent saturation values in an equilibrium analysis, read-out: Kd/eq) of 50 ± 6.5 nM, a koff ([5]; 5 μl/min) of 0.00246 s⁻¹ and a kon ([5]; 5 μl/min) of 1e+06 M⁻¹ s⁻¹. The Kd [5, 10] was 2.34 nM, the Kd [5, 11] was 3.8 ± 0.15 nM and the koff ([6]; 5 μl/min) was 0.0114 s⁻¹. The kon ([6]; 5 μl/min) was 746000 M⁻¹ s⁻¹, the Kd [6, 10] was 15.3 nM and the Kd [6, 11] was 21 ± 2.3 nM. The koff ([7]; 5 μl/min) was 0.0105 s⁻¹, the kon ([7]; 5 μl/min) was 689000 M⁻¹ s⁻¹ and the Kd [7, 10] was 15.2 nM. For the same molecule, the Kd [7, 11] was 25 ± 2.7 nM, the binding activity [8] was “no measurable binding activity” and the Kd [9] was 74.5 ± 7.8 nM.
